{"source": "patent US20220259317A1", "biological_target": "FLT3 CAR (Short Form; NC7 based FLT3 CAR), SEQ ID NO: 1/29", "sequence (chain, as listed by the source)": "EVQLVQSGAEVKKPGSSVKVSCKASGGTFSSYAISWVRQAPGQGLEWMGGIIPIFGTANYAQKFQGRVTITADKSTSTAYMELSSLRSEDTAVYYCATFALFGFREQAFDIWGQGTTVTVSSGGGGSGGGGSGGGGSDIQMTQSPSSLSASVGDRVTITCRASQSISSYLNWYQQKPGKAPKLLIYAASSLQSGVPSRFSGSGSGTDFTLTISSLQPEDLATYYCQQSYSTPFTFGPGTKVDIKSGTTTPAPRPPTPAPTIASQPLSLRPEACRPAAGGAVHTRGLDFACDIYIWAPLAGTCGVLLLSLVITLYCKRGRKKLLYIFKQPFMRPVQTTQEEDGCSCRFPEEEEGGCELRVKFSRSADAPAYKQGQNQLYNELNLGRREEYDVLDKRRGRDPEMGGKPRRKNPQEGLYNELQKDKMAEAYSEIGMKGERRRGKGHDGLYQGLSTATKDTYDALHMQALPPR", "assay": "flow cytometry of FLT3 CAR transduced T cells stained with biotinylated protein L and streptavidin PE", "data": [{"substance": "biotinylated protein L (Genscript)", "values": [{"measurement": "% positive cells", "result": 77.1, "unit": "%"}]}]}
